Consider 19 sequences from the DeepSol protein solubility set.

This data set is described as follows: soluble on expression in E. coli; label from the status in PepcDB or PDB records.
Consider “VELKVKRFPISRYQANNEASDDLIKGAFVGLTNVTFSFAGNIVRVVDTGMDILYNLQPIDEFANSITNVSKTVYKTLKKN”, for which the “soluble on expression in E. coli” value is “not soluble”.

In the case of “SKGLSFSSVYSVGNAAQTGVEDVLEHLDETFDAATSSHTLLLYIETISKPKRFLKHARSLVQKGCRIAAIKSGTSSDGGRAAASHTGAMLNSDVAVDALFRKAGVVRCYSREELATVGAVLQHPVLTGKNMAVITHAGGPAVMLTDALSNGGMSVPPIPEEKTRTLLSELFDGSSVANPIDILATGTAEQLSKVIDTCEKDLDTIDGMVVIFGSPGLFDVSDAYDVIREQQKKCKKPIYAVLPSVINAKEGMERFIAQGGILFEEEVALARAICKVYQTPKPEMTEESELPKAAEIRRLLAGKSGMLGTGDML”, the “soluble on expression in E. coli” value is recorded as “not soluble”.

On to “MAHHHHHHMGCKNSKAREPPADTVTAAQANIATNKNSSTAPTLSPAQHHAKQTGETKRNNAASPASRGNNGEASENESRSEQPKKALGPGGNDVKQAASNSPSKQELDDEGNPLLLPNGDWVRTEGTPFYYSVEENLYFHPPSCQFYDPTNGMWYDPEKDEWYYDDENGAQE”, for which the “soluble on expression in E. coli” value is given as “soluble”.

In the case of “MGSDKIHHHHHHMVKMNMSDIDISEPLSDLLAPLNNEQREFLMNNYTIQTYKKNETIYCEGETPSHLMCLITGKVKIFKDGVGGRSQIIRMIKQREYFAYRAYFAKEDFVTAAAAFEPSVICLIPMTAITTLVAQNNDLAMFFIRQLSIDLGISDERTVSLTQKHIRGRLAESLIFLKESYGLEEDGSTLSIYLSREDLANLSNMTTSNAIRTLSQFATERLITIDGRKIKIIEEEKLKKISKIG”, the “soluble on expression in E. coli” value is on record as “not soluble”.

As to “MAHHHHHHMTALERYAFKVDYCDPQANLVRQYLLLYFAEDSTIEMHDLKTKRVFLKRCAYPSLTPRELFIGATVGVFSRSLKLVDYGDEVTRRHFSGSEAEFVVFIQEGGLCHMGSIIDRMHTWELRITNIRLVDLPDSLCRDLGVSRRCVAILFKGSNAIEKVGGLSTEFPNMTVVVAEPSDVNSVRGAAFGPGGTTAVMKNCSVCVIKPHAIMSGYQGAIIQRLIDEGFHITALGMYSLTVADAEDFLEVYNGVVPEYQRLVEQMSSGPCWAVQVCAENSVSALRAICGPHDPDVCHVLFPHTIRSKYGVDRTRNGVHCTDLEEDAPLESEFFFSLLQNA”, the “soluble on expression in E. coli” value was “not soluble”.

For “MEDQDLLEIGILNSGHRQRILQAIQLLPKMRPIGHDGYHPTSVAEWLDSIELGDYTKAFLINGYTSMDLLKKIWEVELINVLKINLIGHRKRILASLGDRLHDDPPQKPPRSITLREPSGNHTPPQLSPSLSQSTYTTGGSLDVPHIIMQGDARRRRNENYFDDIPRSKLERQMAQSSVCEIWTNQNAGFPFSAIHQVHNTGDWGEPSITLRPPNEATASTPVQYWQHHPEKLIFQSCDYKAFYLGSMLIKELRGTESTQDACAKMRANCQKSTEQMKKVPTIILSVSYKGVKFIDATNKNIIAEHEIRNISCAAQDPEDLSTFAYITKDLKSNHHYCHVFTAFDVNLAYEIILTLGQAFEVAYQLALQARKGGHSSTLPESFENKPSKPIPKPRVSIRKSVQIDPSEQKTLANLPWIVEPGQEAKRGINTKYETTIF”, the “soluble on expression in E. coli” value is “soluble”.

Turning to “SVGREKELSIHFVPGSCRLVEEEVNIPNRRVLVTGATGLLGRAVHKEFQQNNWHAVGCGFRRARPKFEQVNLLDSNAVHHIIHDFQPHVIVHCAAERRPDVVENQPDAASQLNVDASGNLAKEAAAVGAFLIYISSDYVFDGTNPPYREEDIPAPLNLYGKTKLDGEKAVLENNLGAAVLRIPILYGEVEKLEESAVTVMFDKVQFSNKSANMDHWQQRFPTHVKDVATVCRQLAEKRMLDPSIKGTFHWSGNEQMTKYEMACAIADAFNLPSSHLRPITDSPVLGAQRPRNAQLDCSKLEILGIGQRTPFRIGIKESLWPFLIDKRWRQTVFH”, the “soluble on expression in E. coli” value is listed as “soluble”.

In the case of “MGSDKIHHHHHHMQVYPLIMNKLVMPAASRFTDLKIWDEYKVMLKSERLSLEQLRQMQLTKLQTIVRHAYENVPFYRQRFDSIGLHPEDIKSIEDIERIPPTTKDDIMANFPEGITAGGMDRNRWKYVASSGTTRKIMGIHDFRKSTLNWAAGIRAHRLAGNHRMGMKWMEIPPHMCTTICGINDGPKGEKLSTKKLVSLVKEGDFGGAGRHVYEGLYSMRHDLYKRVTLPSFGPEGTNIPESDIVSYLDSIRSYQPHLLEGLPLYLYTFAKYILDKGISAPRVGVIKPFGGSLTPYMKQIIATAFGCEVYDTYGCSELGFMAADCPKHEGVHLFMDLYHVEVRHGDRAAAPGELGKFYVTDLENRAMPWIRYEIGDVGRYFEDDHGCGRRGIRLEVEGRVQDTLVNSQGRFFTSDEVFDFFHRREEIDNFQLTEKSAGRYELLCVPVEGKEVDREGIARDFREFFDTEANVKAYAVKTIKAEDGGKFRFIKAKGHDRL”, the “soluble on expression in E. coli” value is reported as “not soluble”.

As for “MCMYEADVRINGTLIWYYFICKREVWLISHGITADQEDENIEIGRFIHENAYSREKKEIDFDNFKVDVADSIDGKIIVQEVKKSSKFKKSARMQLLFYIYEIKKSGIDARGILLFPEERKREEVVLDEASQKELDSVIKDIFKIVNLEKPPIPEKCKYCRNCAYSELCWA”, the “soluble on expression in E. coli” value is “not soluble”.

Turning to “MKFDIVVIGGGLAGASLLAALKGSGLRLALIESRPPAPLPDDDSWDARVYAISPGSVEFLQSSGIWQRMNAARITPVHEMRVHGDDNAARIDFSAYESGVPELACIIENRQLQHAVWEELAGAENVQIFCPAQCDSLAWQDSHVELTLADGTVLQTALLIGADGINSRVREQAGIGVDRHSYYQTGVVANFETERVHHHIAYQWFRRDGILALLPLPGKRVSMVWSANTALADELLNLSAEALCDRVARAAEYELGSMRLVTAPLGFPLNFVHARSLIKPRLALIGDAAHGIHPLAGQGVNLGLRDVRELARLQRQFGGIGDCGEFSLLRCYERNRKEDILAMGWVTDGLQKLFGSEDAAIMRIRNVGLGITNRLPLLKNRLMRHALSLEHHHHHH”, the “soluble on expression in E. coli” value is reported as “not soluble”.

In the case of “MGSDKIHHHHHHMSTDNLALNIREKAMEAGFDHCGIVKIDALADYVSRLEERAAAFPRSKPFYDFLSKLGTPQAAHEWGKSVIVCAMRYGKYRIPNRADRHIGKLYLYGGYRQPAYSQEYAGMAGFEAFLAAEGIRFAKDVFGIAPARLCAAQANLGVIRNNNFLYTEHGSWVWLETWLIDRELEYRESPNTLPSCPPGCSKCIDACPTGALKAPFLTDMGTCIARLTYSPSGEAPEPLRESMGTWLYGCDECQNACPMNKGRWEEKEEYPRLEELSRHISLEKIAEMDEHAVSDILSPMFWIIGKEKLWMWKCNVIRAMVNGKDPGHHSTIRKLCDDGNENVRRTAEWACRQLGI”, the “soluble on expression in E. coli” value is given as “not soluble”.

“MMSACSDFLDREPLTTPNSETFLSNASAVNNYINGLYIALPSFGTYDMGVRGEEKNSDNIVAEVYDKRLNGELQENGGGTTEWQKGYQNLRNVNYFFEYYKVPETEETKDVLSMKGEAYFFRAYWHFYLLTRFGSIPVMDRFWDGNATVGGLQIPPRDRSAVAQFILDDLNTAKGLLHSRSQYKGLRVCKEAAIIMAMRVALYEGTWEKYHKGTDFAAAEDKSADLLGQVLTLGDELFGMGLALNTKATDKNAVNIEDAYAHIFNSKDLSDMTEVVFWKKYSIADGVIHNLSSNLGAGYVDNSGPAGLSQSLVDNYLNADGTPINPADGIFKDFNLTFKGRDGRLLATVMHSNCKFKSTSPESKSKAMLVEEYSEENKQIVRPPYLTEGGPARNATGYHIRMSIDTTYVSGQGETSLPVIRYAEALLAYAEAAEELGKCTPAVLEKTLKPLRERAGVTYKDPSEIDPNFTDFGYTISANLQEIRRERRAELALQGFRLDDLMRWRAHKLIQGKRGTGAYFGTDGVLYKAFDPKNAADLKTILTTDGWLDPQKELLPRGYQFDANRDYLLPVPPSEISLNHELKQNPGWQRK”: the “soluble on expression in E. coli” value was “not soluble”.

Regarding “MGSDKIHHHHHHMNYFATVARGLETLAAQELEQLGAHSVEPGFCGVAFEGDRTLLYRVNLWARLPFRILVDIHEFPCLDAKDLYRGIQTIDWQNYLTPDMTLAVNVTGKNAHLNHSHFTSLQVKNAIVDQQQEKLGERSNVELHEPDVRVNVHIERDFCTVKLDSSGNSLHRRGYRPAVGSAPLKESLAAALIQLSGWKQDQMFYDPLCGSGTLPLEASLKALNIAPGLFRESFGFENWLDFDLVLLEKLLQEAKDSQLDTLPAPIWGSDHDENVIEQAINNAQNCGVDNHVWFSQMELADVVAPADSGILLCNPPYGERLGRDSDLGAFYKLLGDVLKQRFKGWTAFVLSGNKELSQSIGLKSSKRIAVYNGALPCQLMKYELY”, the “soluble on expression in E. coli” value is recorded as “not soluble”.

Take “MGSDKIHHHHHHMPKPTKIVVLLKGYPRLSETFIAQELLGLEQAGFALELVAMRRPTDKKRHPVHDEIQAPVHYLPEYLHEEPGRVLKALWAVRRLPGFRPVLTQFFKDLRRDFSRNRFRRLGQAMVLVAEWPGKADWLHAHFIHTPASVAFYASLLGSRGFSVSAHAKDIWTSESWDLADKLAHATWVVTCTKVGFDRLSALADGRGSVHLSYHGLDLDRFPHFEGVRPARDGSDTADPLRLLSVGRAVKKKGYDVLLRALSALPADLNWHFTHIGGGDELVRLQALADQLGIASRITWKGAMDQRDVLTHYRDSDLFTLACRITADGDRDGLPNVLVEAASQGLMPVSTTVSGISELFVDGENGLLVEPDDAQALAVALEKAMRDPALRARLGSAAEGKVRRDFDYRNSIRDLTDLFSGRQ”: the “soluble on expression in E. coli” value is on record as “not soluble”.

For the sequence “MSLKTWFITGTSSGFGKELATIVARQSDTQLIAAARHTDDLAYLDVFDATRIEKVSIDVTNESQIKTGVAQAIQRFGTIDVLVNNAGLGYFSTIEESDMAKVRYMFEVNVMGLANVTRTVLPTMRAHHAGIIINLSSALALTTLPTMGFYSATKYAVEGYSDTLRQEVKDLGIQIMTVEPSGARTQWSGRSSQKMVPTIADYAAFSDAITTVSDSVTQAPGNPHRIAQVMFDQANLAEVPAHLPLGEFAYQGGLANLQSIVSEIKSREDLSLSTDEGHHHHHH”, the “soluble on expression in E. coli” value was “not soluble”.

As to “MSLASLRVLALACLPLFAVLHADAKTLLGKVKRATGMGVGEGPSVAKKPKYTATVPGFTPPSGDQRMNEFMAVDTSGEFMRHLYIEEGRTVCASATSRNRRPTSESPHSDDVVVVEGMLRGRPETRVHAMFDGFQGRHSAMWLAQNVMNYLNDLRDVNEEEITRQFERMDGDLRAANLPGGSSALIIFVRYEKKPTEARVVGRQIVPEGAKEFTSVAEALGGPLMPVVAMNFRRDPRAAKGIYTIHVASLGNSRCVLKSGRTAIHLSTPHTASSHKERHRVQAAGGVFTTVNGELLLGGVVPMTRAFGSFDFKKGGQGKLQQDLVSAVPDVTTFFAYPGDDIVAGTAGAFAHFRSHAAIAAAIALYPVSPETVLDAAEGHHHHHH”, the “soluble on expression in E. coli” value is “soluble”.

On to “EKFVFEGKGDEVIGIEKPGDFVVVLDEVEHEKFVRKGDNLIIQHNIDLSEALCGFVRTISTLDGRTIFYRVLPGEVIAHADVKVIHNEGMPMRRASSDKGDLLVQFDVKFPDKINPDAAKKLADLL”, for which the “soluble on expression in E. coli” value is recorded as “not soluble”.

For “MGSDKIHHHHHHMSENHWENQPGTPPDVTPECGQESDGERLYLWRQIVHWRSGTGGSQCNPLIELDKQNHWSVMNGGATGASGWLLVPTDRKKGIECRDIWTHRDPNYWNAAWGYVRSPYGSPTTTGLGINSKDKRTQDQLHIHIATFQSDAKTYLDARSPSEIATTPGDWAKKLLTVPSDSKPGQVYRVLHVKDLATDNLFNLLQSNVVSSDQMGNQTMIVIPAKSGGFYVLNSDISLSQGAAFGTGTCNHLLKCS”, the “soluble on expression in E. coli” value is on record as “not soluble”.

For the sequence “MPEHLNARVEACYRQAEHFFQRSFPRPTVSFRLRGQKAGVAHLDENLLRFNPQLYRENREHFLEQTVAHEVAHLIAHQLFGPRIRPHGEEWQLIMRGIYGLPPDRCHTYAVKRRATTRYLYRCHCPEHNDFPFSPQRHTLVAKGRRYYCRRCKATLVFTGEVLRELEHHHHHH”, the “soluble on expression in E. coli” value was “soluble”.
